Measured values from publication PMC4400149, “The Carboxy-Terminal Domain of Erb1 Is a Seven-Bladed ß-Propeller that Binds RNA” (PLoS ONE, 2015).
Values belong to the molecule of their own block, whether it stands above or below them.

What was measured:
[1] = molecular target: T1, ChErb1 432-801 (C-terminal seven-bladed beta-propeller) (Chaetomium thermophilum var. thermophilum) (UniProt G0SCK6); assay: fluorescence titration (intrinsic Trp); settings: apparent KD; emission at 315 nm; 1.5 uM protein; Fluorescence: 20 mM Hepes pH 7.5, 150 mM NaCl, 5% glycerol, 2 mM beta-mercaptoethanol, 25 C; bead pull-down: 50 mM Tris pH 8, 100 mM NaCl, 5 mM MgCl2, 3 mM …
T1 sequence: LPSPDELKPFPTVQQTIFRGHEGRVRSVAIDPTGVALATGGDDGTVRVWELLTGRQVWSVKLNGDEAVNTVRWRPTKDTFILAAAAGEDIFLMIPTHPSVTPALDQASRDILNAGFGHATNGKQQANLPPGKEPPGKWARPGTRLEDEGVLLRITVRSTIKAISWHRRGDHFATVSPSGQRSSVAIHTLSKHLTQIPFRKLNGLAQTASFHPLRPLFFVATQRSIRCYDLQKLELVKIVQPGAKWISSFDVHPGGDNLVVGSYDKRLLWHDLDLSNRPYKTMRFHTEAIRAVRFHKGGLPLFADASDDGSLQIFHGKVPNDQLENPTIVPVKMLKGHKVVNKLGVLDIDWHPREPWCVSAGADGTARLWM

[2] = molecular target: T2, Erb1 (Eukaryotic Ribosome Biogenesis 1) from Saccharomyces cerevisiae (Saccharomyces cerevisiae, UniProt Q04660 1-807); assay: SEC; purified Nop7 and Erb1 mixed in equimolar amounts, Superdex200 16/60 in SE buffer (20mM Hepes pH 7.5; 0.25M NaCl; 2 mM β-mercaptoethanol, 5% glycerol); fractions of the heterodimer collected; settings: both partners purified
T2 construct: Erb1, Saccharomyces cerevisiae, cloned from genomic DNA; 807 residues; Vector pET28-NKI/LIC 6His/3C: N-terminal 6xHis tag followed by a 3C protease site; no cleavage of the tag is told; also called 6xHis-Erb1; source: E. coli BL21 Codon Plus, purified (IMAC, size exclusion chromatography)
T2 sequence (looked up): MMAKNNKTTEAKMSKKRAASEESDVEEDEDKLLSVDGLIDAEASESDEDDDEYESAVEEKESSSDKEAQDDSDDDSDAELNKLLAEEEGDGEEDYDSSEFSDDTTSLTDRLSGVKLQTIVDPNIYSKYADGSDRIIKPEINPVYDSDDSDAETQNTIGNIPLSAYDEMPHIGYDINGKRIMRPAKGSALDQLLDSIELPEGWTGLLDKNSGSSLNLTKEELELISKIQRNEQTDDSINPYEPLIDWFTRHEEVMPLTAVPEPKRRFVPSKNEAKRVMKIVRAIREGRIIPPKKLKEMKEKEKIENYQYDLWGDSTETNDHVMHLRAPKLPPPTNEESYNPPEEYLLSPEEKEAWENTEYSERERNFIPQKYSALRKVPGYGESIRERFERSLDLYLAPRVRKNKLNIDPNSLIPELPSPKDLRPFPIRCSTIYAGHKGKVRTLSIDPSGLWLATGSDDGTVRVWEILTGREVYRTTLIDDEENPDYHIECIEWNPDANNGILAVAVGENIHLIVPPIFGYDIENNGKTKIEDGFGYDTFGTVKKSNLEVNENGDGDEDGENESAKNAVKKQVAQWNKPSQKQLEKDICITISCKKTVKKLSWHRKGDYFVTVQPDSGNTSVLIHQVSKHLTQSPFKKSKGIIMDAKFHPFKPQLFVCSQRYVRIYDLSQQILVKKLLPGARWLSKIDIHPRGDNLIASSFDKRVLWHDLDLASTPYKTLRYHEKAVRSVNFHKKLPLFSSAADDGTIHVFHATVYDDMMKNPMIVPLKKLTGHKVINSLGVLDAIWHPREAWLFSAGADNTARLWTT

[3] = molecular target: T3, ChErb1 432-801 (C-terminal seven-bladed beta-propeller) (Chaetomium thermophilum var. …, UniProt G0SCK6 432-801); assay: BLI; Fluorescence: 20 mM Hepes pH 7.5, 150 mM NaCl, 5% glycerol, 2 mM beta-mercaptoethanol, 25 C; bead pull-down: 50 mM Tris pH 8, 100 mM NaCl, 5 mM MgCl2, 3 mM DTT, 0.1% Triton X-100, 0.1 mg/ml BSA, room temperature; BLI conditions not in material; settings: protein: recombinant; tags: N-terminal 6xHis with 3C site (pET28-NKI/LIC 6His/3C); single strand
T3 sequence: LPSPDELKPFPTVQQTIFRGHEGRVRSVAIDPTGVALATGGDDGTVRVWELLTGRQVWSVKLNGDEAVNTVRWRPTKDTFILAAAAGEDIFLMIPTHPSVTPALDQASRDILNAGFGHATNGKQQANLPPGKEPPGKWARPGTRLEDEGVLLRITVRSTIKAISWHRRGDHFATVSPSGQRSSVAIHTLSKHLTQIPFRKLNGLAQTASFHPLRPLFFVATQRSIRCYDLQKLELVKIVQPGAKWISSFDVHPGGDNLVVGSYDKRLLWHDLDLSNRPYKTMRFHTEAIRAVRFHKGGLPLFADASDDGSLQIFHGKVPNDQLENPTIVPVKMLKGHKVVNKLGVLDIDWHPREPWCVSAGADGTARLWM

Molecule: free poly(U)
- Kd [1]: 3 µM

- binding result [2]: binds
B1: Nop7 from Saccharomyces cerevisiae (natural protein, UniProt P53261 1-605, looked up)
chain: MRIKKKNTRGNARNFITRSQAVRKLQVSLADFRRLCIFKGIYPREPRNKKKANKGSTAPTTFYYAKDIQYLMHEPVLAKFREHKTFARKLTRALGRGEVSSAKRLEENRDSYTLDHIIKERYPSFPDAIRDIDDALNMLFLFSNLPSTNQVSSKIINDAQKICNQWLAYVAKERLVRKVFVSIKGVYYQANIKGEEVRWLVPFKFPENIPSDVDFRIMLTFLEFYSTLLHFVLYKLYTDSGLIYPPKLDLKKDKIISGLSSYILESRQEDSLLKLDPTEIEEDVKVESLDASTLKSALNADEANTDETEKEEEQEKKQEKEQEKEQNEETELDTFEDNNKNKGDILIQPSKYDSPVASLFSAFVFYVSREVPIDILEFLILSCGGNVISEAAMDQIENKKDIDMSKVTHQIVDRPVLKNKVAGRTYIQPQWIFDCINKGELVPANKYLPGEALPPHLSPWGDAIGYDPTAPVEEGEEEESESESESEDQVEEEDQEVVAGEEDDDDDEELQAQKELELEAQGIKYSETSEADKDVNKSKNKKRKVDEEEEEKKLKMIMMSNKQKKLYKKMKYSNAKKEEQAENLKKKKKQIAKQKAKLNKLDSKK
notes: Nop7, Saccharomyces cerevisiae, cloned from genomic DNA; called full length Nop7 in the results; Vector pNIC28-Bsa4: N-terminal 6xHis tag followed by a TEV site; no cleavage of the tag is told; also called 6xHis-Nop7; source: E. coli BL21 Codon Plus, purified (IMAC, size exclusion chromatography)

Molecule: UUUUUUUUUUUUUUU (ssRNA) [biotinylated poly(U) 15-mer]
- Kd [3]: 0.17 µM
